Experimental data as given in patent publication US20140274782A1, “AFFINITY REAGENTS AND METHODS FOR DETECTION, PURIFICATION, AND PROTEOMIC ANALYSIS OF METHYLATED PROTEINS” (The Board of Trustees of the Leland Stanford Junior …, priority 2013, published 2014).

T1: G9a and GLP (Homo sapiens, UniProt Q96KQ7+Q9H9B1)
T1 sequence (Q96KQ7 2-1210 limits assumed): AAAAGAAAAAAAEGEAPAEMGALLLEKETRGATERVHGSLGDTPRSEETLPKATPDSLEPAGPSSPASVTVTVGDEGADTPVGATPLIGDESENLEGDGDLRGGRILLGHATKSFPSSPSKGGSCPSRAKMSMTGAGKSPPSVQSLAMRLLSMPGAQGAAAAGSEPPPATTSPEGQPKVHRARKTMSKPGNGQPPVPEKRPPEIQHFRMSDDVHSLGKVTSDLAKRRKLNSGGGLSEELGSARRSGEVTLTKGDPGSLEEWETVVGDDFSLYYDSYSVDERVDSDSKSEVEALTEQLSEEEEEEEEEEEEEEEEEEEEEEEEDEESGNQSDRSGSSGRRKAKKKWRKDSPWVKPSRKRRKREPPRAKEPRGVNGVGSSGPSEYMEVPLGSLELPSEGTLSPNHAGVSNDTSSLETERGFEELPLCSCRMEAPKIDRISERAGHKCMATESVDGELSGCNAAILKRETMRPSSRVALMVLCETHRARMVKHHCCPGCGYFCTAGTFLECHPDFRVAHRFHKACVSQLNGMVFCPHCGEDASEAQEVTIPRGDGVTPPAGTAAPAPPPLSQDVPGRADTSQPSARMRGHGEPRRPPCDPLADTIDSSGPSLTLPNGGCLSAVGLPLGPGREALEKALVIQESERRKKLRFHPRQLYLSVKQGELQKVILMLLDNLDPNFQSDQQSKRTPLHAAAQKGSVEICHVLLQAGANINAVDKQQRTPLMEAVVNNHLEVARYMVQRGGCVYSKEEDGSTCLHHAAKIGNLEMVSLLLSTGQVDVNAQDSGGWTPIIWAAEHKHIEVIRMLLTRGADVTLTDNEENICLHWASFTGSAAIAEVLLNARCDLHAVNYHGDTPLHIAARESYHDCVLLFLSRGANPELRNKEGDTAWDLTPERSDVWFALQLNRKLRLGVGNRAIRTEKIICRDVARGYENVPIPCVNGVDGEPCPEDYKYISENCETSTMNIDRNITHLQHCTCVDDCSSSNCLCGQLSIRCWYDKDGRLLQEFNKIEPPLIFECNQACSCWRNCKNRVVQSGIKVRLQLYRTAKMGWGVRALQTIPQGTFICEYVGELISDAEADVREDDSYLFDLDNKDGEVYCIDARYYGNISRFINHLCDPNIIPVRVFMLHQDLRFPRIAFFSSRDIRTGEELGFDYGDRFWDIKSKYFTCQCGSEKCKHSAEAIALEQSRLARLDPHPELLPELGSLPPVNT
T1 sequence (Q9H9B1 2-1298 limits assumed): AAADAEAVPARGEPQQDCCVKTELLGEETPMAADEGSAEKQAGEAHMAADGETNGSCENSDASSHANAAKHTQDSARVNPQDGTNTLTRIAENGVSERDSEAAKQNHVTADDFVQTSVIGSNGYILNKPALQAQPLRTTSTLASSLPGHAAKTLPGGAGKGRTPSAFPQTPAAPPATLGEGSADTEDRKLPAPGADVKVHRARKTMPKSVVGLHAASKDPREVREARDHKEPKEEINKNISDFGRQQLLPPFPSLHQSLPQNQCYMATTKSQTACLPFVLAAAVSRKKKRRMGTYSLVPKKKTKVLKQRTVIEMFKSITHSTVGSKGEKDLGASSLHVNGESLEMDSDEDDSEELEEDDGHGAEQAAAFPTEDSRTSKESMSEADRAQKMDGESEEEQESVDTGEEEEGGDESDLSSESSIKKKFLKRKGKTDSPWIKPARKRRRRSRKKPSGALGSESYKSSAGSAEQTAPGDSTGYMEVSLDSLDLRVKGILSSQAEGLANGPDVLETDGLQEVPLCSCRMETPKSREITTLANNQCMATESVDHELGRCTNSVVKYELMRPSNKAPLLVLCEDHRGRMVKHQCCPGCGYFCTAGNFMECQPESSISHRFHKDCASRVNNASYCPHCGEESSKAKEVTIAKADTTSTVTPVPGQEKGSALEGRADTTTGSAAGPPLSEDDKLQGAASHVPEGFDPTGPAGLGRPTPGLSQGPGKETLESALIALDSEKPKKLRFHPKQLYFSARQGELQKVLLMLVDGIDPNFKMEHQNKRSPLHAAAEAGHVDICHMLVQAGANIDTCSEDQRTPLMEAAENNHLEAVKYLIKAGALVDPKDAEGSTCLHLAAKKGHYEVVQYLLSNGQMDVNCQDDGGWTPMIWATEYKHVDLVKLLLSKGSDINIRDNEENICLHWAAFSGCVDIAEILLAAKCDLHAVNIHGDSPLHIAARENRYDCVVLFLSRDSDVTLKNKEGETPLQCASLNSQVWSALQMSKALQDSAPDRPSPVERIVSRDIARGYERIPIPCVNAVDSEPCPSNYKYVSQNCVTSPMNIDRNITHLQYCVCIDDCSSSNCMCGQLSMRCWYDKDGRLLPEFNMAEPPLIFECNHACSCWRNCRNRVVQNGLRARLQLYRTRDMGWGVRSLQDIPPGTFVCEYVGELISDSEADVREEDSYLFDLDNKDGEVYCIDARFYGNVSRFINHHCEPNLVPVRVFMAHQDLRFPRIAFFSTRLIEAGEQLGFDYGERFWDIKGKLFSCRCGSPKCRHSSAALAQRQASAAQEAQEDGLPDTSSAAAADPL

B1: PAICS (protein, UniProt P22234 2-425, looked up)
Bifunctional …: ATAEVLNIGKKLYEGKTKEVYELLDSPGKVLLQSKDQITAGNAARKNHLEGKAAISNKITSCIFQLLQEAGIKTAFTRKCGETAFIAPQCEMIPIEWVCRRIATGSFLKRNPGVKEGYKFYPPKVELFFKDDANNDPQWSEEQLIAAKFCFAGLLIGQTEVDIMSHATQAIFEILEKSWLPQNCTLVDMKIEFGVDVTTKEIVLADVIDNDSWRLWPSGDRSQQKDKQSYRDLKEVTPEGLQMVKKNFEWVAERVELLLKSESQCRVVVLMGSTSDLGHCEKIKKACGNFGIPCELRVTSAHKGPDETLRIKAEYEGDGIPTVFVAVAGRSNGLGPVMSGNTAYPVISCPPLTPDWGVQDVWSSLRLPSGLGCSTVLSPEGSAQFAAQIFGLSNHLVWSKLRASILNTWISLKQADKKIRECNL
B2: IARS (protein, UniProt P41252 1-1262, looked up)
Isoleucine--tRNA ligase, …: MLQQVPENINFPAEEEKILEFWTEFNCFQECLKQSKHKPKFTFYDGPPFATGLPHYGHILAGTIKDIVTRYAHQSGFHVDRRFGWDCHGLPVEYEIDKTLGIRGPEDVAKMGITEYNNQCRAIVMRYSAEWKSTVSRLGRWIDFDNDYKTLYPQFMESVWWVFKQLYDKGLVYRGVKVMPFSTACNTPLSNFESHQNYKDVQDPSVFVTFPLEEDETVSLVAWTTTPWTLPSNLAVCVNPEMQYVKIKDVARGRLLILMEARLSALYKLESDYEILERFPGAYLKGKKYRPLFDYFLKCKENGAFTVLVDNYVKEEEGTGVVHQAPYFGAEDYRVCMDFNIIRKDSLPVCPVDASGCFTTEVTDFAGQYVKDADKSIIRTLKEQGRLLVATTFTHSYPFCWRSDTPLIYKAVPSWFVRVENMVDQLLRNNDLCYWVPELVREKRFGNWLKDARDWTISRNRYWGTPIPLWVSDDFEEVVCIGSVAELEELSGAKISDLHRESVDHLTIPSRCGKGSLHRISEVFDCWFESGSMPYAQVHYPFENKREFEDAFPADFIAEGIDQTRGWFYTLLVLATALFGQPPFKNVIVNGLVLASDGQKMSKRKKNYPDPVSIIQKYGADALRLYLINSPVVRAENLRFKEEGVRDVLKDVLLPWYNAYRFLIQNVLRLQKEEEIEFLYNENTVRESPNITDRWILSFMQSLIGFFETEMAAYRLYTVVPRLVKFVDILTNWYVRMNRRRLKGENGMEDCVMALETLFSVLLSLCRLMAPYTPFLTELMYQNLKVLIDPVSVQDKDTLSIHYLMLPRVREELIDKKTESAVSQMQSVIELGRVIRDRKTIPIKYPLKEIVVIHQDPEALKDIKSLEKYIIEELNVRKVTLSTDKNKYGIRLRAEPDHMVLGKRLKGAFKAVMTSIKQLSSEELEQFQKTGTIVVEGHELHDEDIRLMYTFDQATGGTAQFEAHSDAQALVLLDVTPDQSMVDEGMAREVINRIQKLRKKCNLVPTDEITVYYKAKSEGTYLNSVIESHTEFIFTTIKAPLKPYPVSPSDKVLIQEKTQLKGSELEITLTRGSSLPGPACAYVNLNICANGSEQGGVLLLENPKGDNRLDLLKLKSVVTSIFGVKNTELAVFHDETEIQNQTDLLSLSGKTLCVTAGSAPSLINSSSTLLCQYINLQLLNAKPQECLMGTVGTLLLENPLGQNGLTHQGLLYEAAKVFGLRSRKLKLFLNETQTQEITEDIPVKTLNMKTVYVSVLPTTADF
B3: RBM39 (protein, UniProt Q14498 2-530, looked up)
RNA-binding protein 39: ADDIDIEAMLEAPYKKDENKLSSANGHEERSKKRKKSKSRSRSHERKRSKSKERKRSRDRERKKSKSRERKRSRSKERRRSRSRSRDRRFRGRYRSPYSGPKFNSAIRGKIGLPHSIKLSRRRSRSKSPFRKDKSPVREPIDNLTPEERDARTVFCMQLAARIRPRDLEEFFSTVGKVRDVRMISDRNSRRSKGIAYVEFVDVSSVPLAIGLTGQRVLGVPIIVQASQAEKNRAAAMANNLQKGSAGPMRLYVGSLHFNITEDMLRGIFEPFGRIESIQLMMDSETGRSKGYGFITFSDSECAKKALEQLNGFELAGRPMKVGHVTERTDASSASSFLDSDELERTGIDLGTTGRLQLMARLAEGTGLQIPPAAQQALQMSGSLAFGAVAEFSFVIDLQTRLSQQTEASALAAAASVQPLATQCFQLSNMFNPQTEEEVGWDTEIKDDVIEECNKHGGVIHIYVDKNSAQGNVYVKCPSIAAAIAAVNALHGRWFAGKMITAAYVPLPTYHNLFPDSMTATQLLVPSRR

system: 3×MBT domain of L3MBTL1; assay: Triple SILAC pull-down, 3xMBT/3xMBTD355N ratio (cytoplasmic, nuclear and chromatin fractions of 293T cells); type: binding, human; settings: SILAC ratio 3xMBT vs 3xMBTD355N pull-down, 293T cells; experiment with UNC0638 in heavy SILAC media; all values in log base 2;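 note: proteins quantified with MaxQuant, requiring at least two unique peptides and quantification in both label directions, normalized to the mean of proteins from a digested loading control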

Molecule | 3xMBT/D355N UNC Heavy [log base 2]
B1 | 1.12
B2 | 2.10
B3 | 2.04

same assay, conditions: SILAC ratio 3xMBT vs 3xMBTD355N pull-down, 293T cells; experiment with UNC0638 in light SILAC media; all values in log base 2

Molecule | 3xMBT/D355N UNC Light [log base 2]
B1 | 1.04
B2 | 2.25
B3 | 0.93

target: T1, G9a and GLP; assay: Triple SILAC pull-down after UNC0638 treatment of 293T cells, DMSO/UNC0638 ratio of protein captured by 3×MBT; type: cell-based; design: endogenous in cells; host or cells: HEK 293T; settings: SILAC ratio DMSO relative to UNC0638, pull-down with 3xMBT; UNC0638 in heavy SILAC media; all values in log base 2;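 note: mass spectrometry (Q-Exactive) SILAC quantitation, DMSO/UNC0638 ratio computed after subtracting 3×MBTD355N mutant pull-down background, only proteins with at least twofold 3×MBT over mutant signal considered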

Molecule | Relative to UNC0638 UNC Heavy [log base 2]
B1 | −0.03
B2 | −0.19
B3 | 0.03

same assay, conditions: SILAC ratio DMSO relative to UNC0638, pull-down with 3xMBT; UNC0638 in light SILAC media; all values in log base 2

Molecule | Relative to UNC0638 UNC Light [log base 2]
B1 | 0.05
B2 | 0.21
B3 | −0.03

same assay, conditions: average of UNC Light and UNC Heavy experiments; all values in log base 2

Molecule | Relative to UNC0638 Average [log base 2]
B1 | 0.01
B2 | 0.01
B3 | 0.00
